Experimental data as given in PMC12564524, “AlphaFold-Guided Semi-Rational Engineering of an (R)-Amine Transaminase for Green Synthesis of Chiral Amines” (Biomolecules, 2025).

B1: MwoAT (Mycolicibacterium wolinskyi) (protein)
chain: MQYSDYELDTTSPFAGGVAWIEGEYLPASEAKISIFDTGFGHSDLTYTVAHVWHGNIFRLGDHLDRLLDGARKLRLDPGMSKDELAEITKKCVSLSQLRESFVNLTVTRGYGKRKGEKDLSKLTHQVYIYAIPYLWAFPPSEQIFGTTAIVPRHVRRAGRNTVDPTIKNYQWGDLTAASFEAKDRGARTAILMDADNCVAEGPGFNVVIVKDGKLASPSRNALPGITRKTVFEIADAMGIEAELRDVTSHELYDADELMAVTTAGGVTPINSLDGEPIGDGAPGPLTVAIRDRFWALMDEPSALIEAIQY
notes: N-terminal 6xHis tag, pET-15b, codon-optimised synthetic gene, E. coli BL21(DE3), Ni-NTA purified; about 48 kDa; PLP-dependent fold type IV

Experiments:
CC(=O)CCc1ccccc1 = tested on: T1, CC(=O)CCc1ccccc1; test: HPLC quantification of (R)-1-methyl-3-phenylpropylamine, Michaelis-Menten fit; assay type: biochemical, Mycolicibacterium wolinskyi; conditions: pH 7.0, 40 °C, 30 min, 10 μg/mL enzyme, ketone 0-200 mM, standard assay has 20 mM (R)-2-aminoheptane, 2 mM PLP, 100 mM triethanolamine
T1 construct: N-terminal 6xHis tag, pET-15b, codon-optimised synthetic gene, E. coli BL21(DE3), Ni-NTA purified; about 48 kDa; PLP-dependent fold type IV
Text: (§1) HPLC quantification of (R)-1-methyl-3-phenylpropylamine, Michaelis-Menten fit on MwoAT

[1] = substrate: CC(=O)CCc1ccccc1; test: as above; assay type: biochemical, Mycolicibacterium wolinskyi; conditions: pH 7.0, 40 °C, 30 min, 10 μg/mL enzyme, ketone 0-200 mM, standard assay has 20 mM (R)-2-aminoheptane, 2 mM PLP, 100 mM triethanolamine
Text: as §1

Molecule | Km (CC(=O)CCc1ccccc1) | kcat (CC(=O)CCc1ccccc1) | kcat/Km (CC(=O)CCc1ccccc1) | Km [1] | kcat [1] | kcat/Km [1]
MwoAT (Mycolicibacterium wolinskyi; L175G) | 42.87 ± 0.43 mM | 5.32 ± 0.026 s⁻¹ | 124 ± 2.5 M⁻¹ s⁻¹ |  |  | 
MwoAT (Mycolicibacterium wolinskyi; L175A) | 54.25 ± 2.42 mM | 5.677 ± 0.0542 s⁻¹ | 105 ± 5.67 M⁻¹ s⁻¹ |  |  | 
B1 |  |  |  | 68.03 ± 1.68 mM | 3.9358 ± 0.0035 s⁻¹ | 57.8 ± 1.5 M⁻¹ s⁻¹
